Where a chain is given by its changes, count along the chain named.
T1: CAPRIN-1 protein expressed on the membrane surface of human cancer cells (human, UniProt Q14444 2-709)
T1 sequence (looked up): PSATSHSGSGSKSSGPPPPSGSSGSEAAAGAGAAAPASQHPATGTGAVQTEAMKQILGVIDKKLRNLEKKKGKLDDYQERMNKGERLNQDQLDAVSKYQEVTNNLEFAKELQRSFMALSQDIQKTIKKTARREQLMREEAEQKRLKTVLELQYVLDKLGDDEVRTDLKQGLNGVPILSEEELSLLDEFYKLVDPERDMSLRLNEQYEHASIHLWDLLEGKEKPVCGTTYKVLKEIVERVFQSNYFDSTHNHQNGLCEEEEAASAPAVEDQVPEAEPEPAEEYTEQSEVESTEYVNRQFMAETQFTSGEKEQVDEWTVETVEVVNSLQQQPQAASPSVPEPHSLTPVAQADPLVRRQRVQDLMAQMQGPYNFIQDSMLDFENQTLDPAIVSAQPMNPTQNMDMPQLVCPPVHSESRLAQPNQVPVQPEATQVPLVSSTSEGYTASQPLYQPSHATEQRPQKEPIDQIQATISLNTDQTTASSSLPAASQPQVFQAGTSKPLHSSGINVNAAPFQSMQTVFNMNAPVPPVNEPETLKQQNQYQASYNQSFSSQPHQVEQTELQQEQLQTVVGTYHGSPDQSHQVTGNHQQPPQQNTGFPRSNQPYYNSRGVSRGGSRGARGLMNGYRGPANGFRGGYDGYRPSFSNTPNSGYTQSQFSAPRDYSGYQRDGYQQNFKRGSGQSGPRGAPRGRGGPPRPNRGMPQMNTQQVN

B1: humanized antibody #7 (antibody, V domains shown)
VH: EVQLVESGGGLVQPGGSLRLSCAASGFSLSSHSLGWVRQAPGKGLEWIGDIRSGGSAYYANWAKGRFTISRDNSKNTLYLQMNSLRAEDTAVYYCTRTNGPSDLTNRLDLWGQGTLVTVSS
VL: QVLTQSPSSLSASVGDRVTINCQASQSLYNNENLAWFQQKPGKVPKRLIYGASTLASGVSSRFSGSGSGTEFTLTISSLQCEDFAIYYCLGEFSCGSADCFAFGGGTKVEIK
B2: humanized antibody #2 (antibody, V domains shown)
VH: B1 VH
VL: EIVLTQSPSSLSASVGDRVTINCQASQSLYNNENLAWFQQKPGKVPKRLIYGASTLASGVSSRFSGSGSGTEFTLTISNLQPEDFATYYCLGEFSCGSADCFAFGGGTKVEIK
B3: humanized antibody #10 (antibody, V domains shown)
VH: B1 VH with V2Q, Q3S
VL: B1 VL
B4: humanized antibody #1 (antibody, V domains shown)
VH: B1 VH
VL: B2 VL with E1A, V3Q, L4M, V45A, E72D, N79S, T87I
B5: humanized antibody #0 (antibody, V domains shown)
VH: B1 VH with Y94F
VL: B2 VL with E1A, V3Q, L4M, V45A, E72D, N79S, T87I
B6: humanized antibody #6 (antibody, V domains shown)
VH: B1 VH with Y94F
VL: B1 VL

Biological target: T1, CAPRIN-1 protein expressed on the …
Assay: cell-based or functional assay

Row | Binder | ADCC cytotoxic activity (51Cr release) on 22Rv1 [%] | ADCC cytotoxic activity (51Cr release) on A-673 [%] | ADCC cytotoxic activity (51Cr release) on BT-474 [%] | ADCC cytotoxic activity (51Cr release) on Caki-2 [%] | ADCC cytotoxic activity (51Cr release) on FaDu [%] | ADCC cytotoxic activity (51Cr release) on G-361 [%] | ADCC cytotoxic activity (51Cr release) on HEC-1-A [%] | ADCC cytotoxic activity (51Cr release) on HT-29 [%] | ADCC cytotoxic activity (51Cr release) on HT-1080 [%] | ADCC cytotoxic activity (51Cr release) on HT-1376 [%] | ADCC cytotoxic activity (51Cr release) on Hep3B [%] | ADCC cytotoxic activity (51Cr release) on IM-9 [%] | ADCC cytotoxic activity (51Cr release) on MDA-MB-361 [%] | ADCC cytotoxic activity (51Cr release) on NCI-H2452 [%] | ADCC cytotoxic activity (51Cr release) on NCI-N87 [%] | ADCC cytotoxic activity (51Cr release) on NT/D1 [%] | ADCC cytotoxic activity (51Cr release) on OCI-AML5 [%] | ADCC cytotoxic activity (51Cr release) on OE33 [%] | ADCC cytotoxic activity (51Cr release) on Panc10.5 [%] | ADCC cytotoxic activity (51Cr release) on QG56 [%] | further results
1 | B1 | ≥ 49 | ≥ 50 | ≥ 54 | ≥ 37 | ≥ 50 | ≥ 25 | ≥ 52 | ≥ 43 | ≥ 30 | ≥ 45 | ≥ 28 | ≥ 35 | ≥ 52 | ≥ 35 | ≥ 45 | ≥ 37 | ≥ 20 | ≥ 35 | ≥ 35 | ≥ 46 | ADCC cytotoxic activity (51Cr release) on RD-ES: ≥ 48%; ADCC cytotoxic activity (51Cr release) on RPM11666: ≥ 40%; ADCC cytotoxic activity (51Cr release) on Ramos: ≥ 20%; ADCC cytotoxic activity (51Cr release) on SKOV3: ≥ 35%; ADCC cytotoxic activity (51Cr release) on T24: ≥ 36%; ADCC cytotoxic activity (51Cr release) on TGBC14TKB: ≥ 35%; ADCC cytotoxic activity (51Cr release) on TT: ≥ 42%; ADCC cytotoxic activity (51Cr release) on U-87MG: ≥ 36%
2 | B2 | ≥ 45 | ≥ 46 | ≥ 50 | ≥ 33 | ≥ 40 | ≥ 21 | ≥ 45 | ≥ 40 | ≥ 25 | ≥ 40 | ≥ 25 | ≥ 30 | ≥ 45 | ≥ 39 | ≥ 38 | ≥ 30 | ≥ 18 | ≥ 33 | ≥ 30 | ≥ 42 | ADCC cytotoxic activity (51Cr release) on RD-ES: ≥ 40%; ADCC cytotoxic activity (51Cr release) on RPM11666: ≥ 36%; ADCC cytotoxic activity (51Cr release) on Ramos: ≥ 18%; ADCC cytotoxic activity (51Cr release) on SKOV3: ≥ 31%; ADCC cytotoxic activity (51Cr release) on T24: ≥ 33%; ADCC cytotoxic activity (51Cr release) on TGBC14TKB: ≥ 30%; ADCC cytotoxic activity (51Cr release) on TT: ≥ 35%; ADCC cytotoxic activity (51Cr release) on U-87MG: ≥ 29%
3 | B3 | ≥ 49 | ≥ 50 | ≥ 54 | ≥ 37 | ≥ 50 | ≥ 25 | ≥ 52 | ≥ 43 | ≥ 30 | ≥ 45 | ≥ 28 | ≥ 35 | ≥ 52 | ≥ 35 | ≥ 45 | ≥ 37 | ≥ 20 | ≥ 35 | ≥ 35 | ≥ 46 | ADCC cytotoxic activity (51Cr release) on RD-ES: ≥ 48%; ADCC cytotoxic activity (51Cr release) on RPM11666: ≥ 40%; ADCC cytotoxic activity (51Cr release) on Ramos: ≥ 20%; ADCC cytotoxic activity (51Cr release) on SKOV3: ≥ 35%; ADCC cytotoxic activity (51Cr release) on T24: ≥ 36%; ADCC cytotoxic activity (51Cr release) on TGBC14TKB: ≥ 35%; ADCC cytotoxic activity (51Cr release) on TT: ≥ 42%; ADCC cytotoxic activity (51Cr release) on U-87MG: ≥ 36%
4 | B4 | ≥ 38 | ≥ 40 | ≥ 46 | ≥ 26 | ≥ 35 | ≥ 15 | ≥ 40 | ≥ 35 | ≥ 20 | ≥ 28 | ≥ 21 | ≥ 27 | ≥ 40 | ≥ 31 | ≥ 34 | ≥ 25 | ≥ 15 | ≥ 30 | ≥ 24 | ≥ 38 | ADCC cytotoxic activity (51Cr release) on RD-ES: ≥ 31%; ADCC cytotoxic activity (51Cr release) on RPM11666: ≥ 30%; ADCC cytotoxic activity (51Cr release) on Ramos: ≥ 15%; ADCC cytotoxic activity (51Cr release) on SKOV3: ≥ 27%; ADCC cytotoxic activity (51Cr release) on T24: ≥ 30%; ADCC cytotoxic activity (51Cr release) on TGBC14TKB: ≥ 25%; ADCC cytotoxic activity (51Cr release) on TT: ≥ 30%; ADCC cytotoxic activity (51Cr release) on U-87MG: ≥ 24%
5 | B5 | ≥ 38 | ≥ 40 | ≥ 46 | ≥ 26 | ≥ 35 | ≥ 15 | ≥ 40 | ≥ 35 | ≥ 20 | ≥ 28 | ≥ 21 | ≥ 27 | ≥ 40 | ≥ 31 | ≥ 34 | ≥ 25 | ≥ 15 | ≥ 30 | ≥ 24 | ≥ 38 | ADCC cytotoxic activity (51Cr release) on RD-ES: ≥ 31%; ADCC cytotoxic activity (51Cr release) on RPM11666: ≥ 30%; ADCC cytotoxic activity (51Cr release) on Ramos: ≥ 15%; ADCC cytotoxic activity (51Cr release) on SKOV3: ≥ 27%; ADCC cytotoxic activity (51Cr release) on T24: ≥ 30%; ADCC cytotoxic activity (51Cr release) on TGBC14TKB: ≥ 25%; ADCC cytotoxic activity (51Cr release) on TT: ≥ 30%; ADCC cytotoxic activity (51Cr release) on U-87MG: ≥ 24%
6 | B6 | ≥ 49 | ≥ 50 | ≥ 54 | ≥ 37 | ≥ 50 | ≥ 25 | ≥ 52 | ≥ 43 | ≥ 30 | ≥ 45 | ≥ 28 | ≥ 35 | ≥ 52 | ≥ 35 | ≥ 45 | ≥ 37 | ≥ 20 | ≥ 35 | ≥ 35 | ≥ 46 | ADCC cytotoxic activity (51Cr release) on RD-ES: ≥ 48%; ADCC cytotoxic activity (51Cr release) on RPM11666: ≥ 40%; ADCC cytotoxic activity (51Cr release) on Ramos: ≥ 20%; ADCC cytotoxic activity (51Cr release) on SKOV3: ≥ 35%; ADCC cytotoxic activity (51Cr release) on T24: ≥ 36%; ADCC cytotoxic activity (51Cr release) on TGBC14TKB: ≥ 35%; ADCC cytotoxic activity (51Cr release) on TT: ≥ 42%; ADCC cytotoxic activity (51Cr release) on U-87MG: ≥ 36%

From patent US20160297889A1 (TORAY INDUSTRIES, published 2016)
